Source: patent US20150098939A1 (Sanofi, published 2015)

Legend:
[1] = biological target: T1, human GPVI on platelets (human, UniProt Q9HCN6 21-339); assay: cell-based or functional assay
T1 sequence (looked up): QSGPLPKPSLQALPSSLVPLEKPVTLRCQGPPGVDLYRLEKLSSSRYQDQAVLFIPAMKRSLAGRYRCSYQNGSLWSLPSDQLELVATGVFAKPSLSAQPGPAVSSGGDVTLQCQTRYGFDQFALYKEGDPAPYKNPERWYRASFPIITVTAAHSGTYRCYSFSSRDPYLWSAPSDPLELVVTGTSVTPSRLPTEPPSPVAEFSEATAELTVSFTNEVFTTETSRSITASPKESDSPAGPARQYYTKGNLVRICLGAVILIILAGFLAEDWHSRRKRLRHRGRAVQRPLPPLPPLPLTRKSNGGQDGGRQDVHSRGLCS

[2] = biological target: T2, human GPVI protein, soluble extracellular domain (D1 and D2) (human, UniProt Q9HCN6 21-267); assay: SPR (Biacore 3000), human GPVI immobilised, Fab analyte
T2 construct: extracellular domain; also called hGPVI; human glycoprotein VI
T2 sequence (looked up): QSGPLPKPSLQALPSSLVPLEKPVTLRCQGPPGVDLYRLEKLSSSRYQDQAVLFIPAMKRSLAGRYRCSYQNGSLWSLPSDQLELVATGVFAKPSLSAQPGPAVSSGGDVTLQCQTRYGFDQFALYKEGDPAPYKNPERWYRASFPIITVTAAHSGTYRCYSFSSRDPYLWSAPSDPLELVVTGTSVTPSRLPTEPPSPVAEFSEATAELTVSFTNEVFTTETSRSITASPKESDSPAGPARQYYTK
Experimental: Surface plasmon resonance technology on a Biacore 3000 (GE Healthcare) was used for detailed kinetic characterisation of purified antibody fragments. An assay with immobilised human GPVI was used. Typically, 300 RU of GPVI were immobilised on a research grade CM5 chip by amine reactive coupling, resulting in an Rmax of 200 RU for the bound antibody fragment. Binding kinetics were measured over a concentration range between 3.2 to 112 nM in HBS-EP (10 mM HEPES pH 7.4, 150 mM NaCl, 3 mM EDTA, 0.005% Surfactant P20) at a flow rate of 30 μl/min. Chip surfaces were regenerated with 10 mM glycine pH2.0. Kinetic parameters were analysed and calculated in the BIAevaluation program package (version 4.1) using a flow cell without immobilised GPVI as reference. A 1:1 binding model with mass transfer was applied for a global fit of the data for curves corresponding to analyte concentrations from 3-56 nM of Fab fragment.
Note that the Biacore assay used to measure the data in this example is different in terms of immobilized binding partner (GPVI versus the mAb/Fab fragment) and this leads to the different Biacore affinities as reported in Table 5.

[3] = biological target: T3, hGPVI-hFc fusion protein (human); assay: DELFIA competition assay: Fab preincubated with GPVI-Fc (3 µg/ml), binding to collagen-coated plate, Test 1
T3 construct: also called GPVI-Fc; human GPVI-Fc fusion protein
Experimental: (§1) Collagen coated 384 well plates (Pierce) were blocked with 3% BSA for 2 h. Increasing concentrations of anti GPVI Fab fragments (0.3-20 μg/ml) were incubated with recombinant GPVI (Fusion protein of the extracellular domain of GPVI and Fc-Part of human IgG; 3 μg/ml). The GPVI-Fab mixture was added to collagen coated plates and incubated for 1 h at RT. 384 well plates were washed (DELFIA wash buffer, Perkin Elmer) five times and Eu-labelled anti-human IgG (100 ng/ml Perkin Elmer) was added. Following 1 h incubation at room temperature plates were washed again five times, enhancement solution (Perkin Elmer) was added and incubated for 10 min. Fluorescence was detected at 360/612 nm using a Tecan Ultra reader. Shown in Table 15 are examples of the inhibitory effect of recombinantly produced anti-GPVI Fab fragments on GPVI collagen binding.

[4] = biological target: T3, hGPVI-hFc fusion protein; assay: DELFIA competition assay: Fab preincubated with GPVI-Fc (3 µg/ml), binding to collagen-coated plate, Test 2
Experimental: as §1

[5] = biological target: T3, hGPVI-hFc fusion protein; assay: DELFIA competition assay: Fab preincubated with GPVI-Fc (3 µg/ml), binding to collagen-coated plate, Test 3
Experimental: as §1

B1: humanized anti-GPVI Fab VL1/VH2 (Fab, V domains shown)
VH: QVQLQESGPGLVAPSQSLSITCTVSGFSLTGYGVNWVRQPPSRGLEWLGMIWGDGSTDYQSTLKSRLSISKDNSKSQVFLKMNSLTTDDTARYYCARDLPMDYWGQGTSVTVSS
VL: DIQMTQSPSSLSASVGGRVTITCKASQDINKYIAWYQHKPGKGPSLLIHYTSTLQPGVPSRFSGSGSGRDYSFSISNLQPEDIATYYCLQYANLLTFGGGTKLEIKR
notes: Recombinant Fab: VH fused to CH1 of human IGHG1 (Q569F4), HC ends in DKTHT; VL fused to human constant kappa (Q502W4); also called VL1 with VH2
IC50 for inhibition of collagen induced platelet aggregation (human PRP), Test 1 [1]: 2.3 µg/mL
IC50 for inhibition of collagen induced platelet aggregation (human PRP), Test 2 [1]: 2 µg/mL
IC50 for inhibition of collagen induced platelet aggregation (human PRP), Test 3 [1]: 1.1 µg/mL
Kd [2]: 0.2 nM
koff [2]: 3e-05 s⁻¹
kon [2]: 113000 M⁻¹ s⁻¹
IC50 [3]: 1.17 µg/mL
IC50 [4]: 0.82 µg/mL

B2: humanized anti-GPVI Fab VL1/VH1 (Fab, V domains shown)
VH: QVQLQESGPGLVAPSQSLSITCTVSGFSLTGYGVNWVRQPPSRGLEWLGMIWGDGSTDYQSTLKSRLSISKDTSKSQVFLKMNSLTTDDTARYYCARDLPMDYWGQGTSVTVSS
VL: DIQMTQSPSSLSASVGGRVTITCKASQDINKYIAWYQHKPGKGPSLLIHYTSTLQPGVPSRFSGSGSGRDYSFSISNLQPEDIATYYCLQYANLLTFGGGTKLEIKR
notes: Recombinant Fab: VH fused to CH1 of human IGHG1 (Q569F4), HC ends in DKTHT; VL fused to human constant kappa (Q502W4); also called VL1 with VH1
IC50 for inhibition of collagen induced platelet aggregation (human PRP), Test 1 [1]: 1.5 µg/mL
IC50 for inhibition of collagen induced platelet aggregation (human PRP), Test 2 [1]: 2.3 µg/mL
Kd [2]: 0.4 nM
koff [2]: 4e-05 s⁻¹
kon [2]: 111000 M⁻¹ s⁻¹
IC50 [3]: 1.1 µg/mL
IC50 [4]: 0.75 µg/mL
IC50 [5]: 1 µg/mL

B3: humanized anti-GPVI Fab VL2/VH2 (Fab, V domains shown)
VH: QVQLQESGPGLVAPSQSLSITCTVSGFSLTGYGVNWVRQPPSRGLEWLGMIWGDGSTDYQSTLKSRLSISKDNSKSQVFLKMNSLTTDDTARYYCARDLPMDYWGQGTSVTVSS
VL: DIQMTQSPSSLSASVGGRVTITCKASQDINKYIAWYQHKPGKGPSLLIHYTSTLQPGVPSRFSGSGSGRDYSFSISNLQPEDIATYYCLQYAHLLTFGGGTKLEIKR
notes: Recombinant Fab: VH fused to CH1 of human IGHG1 (Q569F4), HC ends in DKTHT; VL fused to human constant kappa (Q502W4); also called VL2 with VH2
IC50 for inhibition of collagen induced platelet aggregation (human PRP), Test 1 [1]: 1.4 µg/mL
IC50 for inhibition of collagen induced platelet aggregation (human PRP), Test 2 [1]: 2.4 µg/mL
IC50 for inhibition of collagen induced platelet aggregation (human PRP), Test 3 [1]: 2.3 µg/mL
Kd [2]: 0.3 nM
koff [2]: 3e-05 s⁻¹
kon [2]: 108000 M⁻¹ s⁻¹
IC50 [3]: 0.81 µg/mL
IC50 [4]: 0.73 µg/mL
IC50 [5]: 1.05 µg/mL

B4: humanized anti-GPVI Fab VL1/VH5 (Fab, V domains shown)
VH: QVQLQESGPGLVAPSQSLSITCTVSGFSLTGYGVNWVRQPPSRGLEWLGMIWGDGSTDYQSTLKSRLSISKDNSKSQVFLKMNSLTTDDTARYYCARDLPMDEWGQGTSVTVSS
VL: DIQMTQSPSSLSASVGGRVTITCKASQDINKYIAWYQHKPGKGPSLLIHYTSTLQPGVPSRFSGSGSGRDYSFSISNLQPEDIATYYCLQYANLLTFGGGTKLEIKR
notes: Recombinant Fab: VH fused to CH1 of human IGHG1 (Q569F4), HC ends in DKTHT; VL fused to human constant kappa (Q502W4); also called VL1 with VH5
IC50 for inhibition of collagen induced platelet aggregation (human PRP), Test 1 [1]: 1.9 µg/mL
IC50 for inhibition of collagen induced platelet aggregation (human PRP), Test 2 [1]: 2.3 µg/mL
IC50 for inhibition of collagen induced platelet aggregation (human PRP), Test 3 [1]: 1.2 µg/mL
Kd [2]: 0.4 nM
koff [2]: 3e-05 s⁻¹
kon [2]: 81000 M⁻¹ s⁻¹
IC50 [3]: 1.41 µg/mL
IC50 [4]: 1.58 µg/mL
IC50 [5]: 1.24 µg/mL

B5: humanized anti-GPVI Fab VL1/VH4 (Fab, V domains shown)
VH: QVQLQESGPGLVAPSQSLSITCTVSGFSLTYYGVNWVRQPPSRGLEWLGMIWGDGSTDYQSTLKSRLSISKDNSKSQVFLKMNSLTTDDTARYYCARDLPMDYWGQGTSVTVSS
VL: DIQMTQSPSSLSASVGGRVTITCKASQDINKYIAWYQHKPGKGPSLLIHYTSTLQPGVPSRFSGSGSGRDYSFSISNLQPEDIATYYCLQYANLLTFGGGTKLEIKR
notes: Recombinant Fab: VH fused to CH1 of human IGHG1 (Q569F4), HC ends in DKTHT; VL fused to human constant kappa (Q502W4); also called VL1 with VH4
IC50 for inhibition of collagen induced platelet aggregation (human PRP), Test 1 [1]: 1.6 µg/mL
IC50 for inhibition of collagen induced platelet aggregation (human PRP), Test 2 [1]: 1.8 µg/mL
IC50 for inhibition of collagen induced platelet aggregation (human PRP), Test 3 [1]: 1.2 µg/mL
Kd [2]: 0.2 nM
koff [2]: 2e-05 s⁻¹
kon [2]: 124000 M⁻¹ s⁻¹
IC50 [3]: 1.01 µg/mL
IC50 [4]: 1.14 µg/mL
IC50 [5]: 1.06 µg/mL

B6: humanized anti-GPVI Fab VL1/VH3 (Fab, V domains shown)
VH: EVQLLESGPGLVAPSGSLSITCTVSGFSLTGYGVNWVRQPPGKGLEWLGMIWGDGSTDYQSTLKSRLSISKDNSKSQVFLKMNSLRTDDTARYYCARDLPMDYWGLGTSVTVSS
VL: DIQMTQSPSSLSASVGGRVTITCKASQDINKYIAWYQHKPGKGPSLLIHYTSTLQPGVPSRFSGSGSGRDYSFSISNLQPEDIATYYCLQYANLLTFGGGTKLEIKR
notes: Recombinant Fab: VH fused to CH1 of human IGHG1 (Q569F4), HC ends in DKTHT; VL fused to human constant kappa (Q502W4); also called VL1 with VH3
IC50 for inhibition of collagen induced platelet aggregation (human PRP), Test 1 [1]: 1.7 µg/mL
IC50 for inhibition of collagen induced platelet aggregation (human PRP), Test 2 [1]: 1.5 µg/mL
IC50 for inhibition of collagen induced platelet aggregation (human PRP), Test 3 [1]: 1.5 µg/mL
Kd [2]: 0.1 nM
koff [2]: 2e-05 s⁻¹
kon [2]: 148000 M⁻¹ s⁻¹
IC50 [3]: 0.63 µg/mL
IC50 [4]: 1.24 µg/mL
IC50 [5]: 0.87 µg/mL

B7: humanized anti-GPVI Fab VL3/VH4 (Fab, V domains shown)
VH: QVQLQESGPGLVAPSQSLSITCTVSGFSLTYYGVNWVRQPPSRGLEWLGMIWGDGSTDYQSTLKSRLSISKDNSKSQVFLKMNSLTTDDTARYYCARDLPMDYWGQGTSVTVSS
VL: DIQMTQSPSSLSASVGGRVTITCKASQDINKYIAWYQHKPGKGPSLLIHYTSTLQPGVPSRFSGSGSGRDYSFSISNLQPEDIATYYCLQYALLLTFGGGTKLEIKR
notes: Recombinant Fab: VH fused to CH1 of human IGHG1 (Q569F4), HC ends in DKTHT; also called VL3 with VH4
IC50 for inhibition of collagen induced platelet aggregation (human PRP), Test 1 [1]: 1 µg/mL
IC50 for inhibition of collagen induced platelet aggregation (human PRP), Test 2 [1]: 2.3 µg/mL
IC50 for inhibition of collagen induced platelet aggregation (human PRP), Test 3 [1]: 2 µg/mL
Kd [2]: 0.3 nM
koff [2]: 4e-05 s⁻¹
kon [2]: 151000 M⁻¹ s⁻¹
IC50 [3]: 0.72 µg/mL
IC50 [4]: 0.72 µg/mL
IC50 [5]: 1.02 µg/mL

B8: humanized anti-GPVI Fab VL3/VH2 (Fab, V domains shown)
VH: QVQLQESGPGLVAPSQSLSITCTVSGFSLTGYGVNWVRQPPSRGLEWLGMIWGDGSTDYQSTLKSRLSISKDNSKSQVFLKMNSLTTDDTARYYCARDLPMDYWGQGTSVTVSS
VL: DIQMTQSPSSLSASVGGRVTITCKASQDINKYIAWYQHKPGKGPSLLIHYTSTLQPGVPSRFSGSGSGRDYSFSISNLQPEDIATYYCLQYALLLTFGGGTKLEIKR
notes: Recombinant Fab: VH fused to CH1 of human IGHG1 (Q569F4), HC ends in DKTHT; VL fused to human constant kappa (Q502W4); also called VL3 with VH2
IC50 for inhibition of collagen induced platelet aggregation (human PRP), Test 1 [1]: 1.9 µg/mL
IC50 for inhibition of collagen induced platelet aggregation (human PRP), Test 2 [1]: 0.9 µg/mL
IC50 for inhibition of collagen induced platelet aggregation (human PRP), Test 3 [1]: 2.1 µg/mL
Kd [2]: 0.2 nM
koff [2]: 3e-05 s⁻¹
kon [2]: 132000 M⁻¹ s⁻¹
IC50 [3]: 0.67 µg/mL
IC50 [4]: 0.9 µg/mL
IC50 [5]: 1.04 µg/mL
